Source: patent publication US20120258108A1 (AbbVie / Abbott, published 2012)

Experiments:
[1] = target: T1, Recombinant Human TNFα/TNFSF1A (human, UniProt P01375 77-233); assay: SPR (BIACORE)
T1 construct: also called huTNFα
Protocol: The BIACORE assay (Biacore, Inc, Piscataway, N.J.) determines the affinity of antibodies or DVD-Ig with kinetic measurements of on-rate and off-rate constants. Binding of antibodies or DVD-Ig to a target antigen (for example, a purified recombinant target antigen) was determined by surface plasmon resonance-based measurements with a Biacore® 1000 or 3000 instrument (Biacore® AB, Uppsala, Sweden) using running HBS-EP (10 mM HEPES [pH 7.4], 150 mM NaCl, 3 mM EDTA, and 0.005% surfactant P20) at 25° C. All chemicals were obtained from Biacore® AB (Uppsala, Sweden) or otherwise from a different source as described in the text. For example, approximately 5000 RU of goat anti-mouse IgG, (Fcγ), fragment specific polyclonal antibody (Pierce Biotechnology Inc, Rockford, Ill.) diluted in 10 mM sodium acetate (pH 4.5) is directly immobilized across a CM5 research grade biosensor chip using a standard amine coupling kit according to manufacturer's instructions and procedures at 25 μg/ml. Unreacted moieties on the biosensor surface are blocked with ethanolamine. Modified carboxymethyl dextran surface in flowcell 2 and 4 is used as a reaction surface. Unmodified carboxymethyl dextran without goat anti-mouse IgG in flow cell 1 and 3 is used as the reference surface. For kinetic analysis, rate equations derived from the 1:1 Langmuir binding model are fitted simultaneously to association and dissociation phases of all eight injections (using global fit analysis) with the use of Biaevaluation 4.0.1 software. Purified antibodies or DVD-Ig are diluted in HEPES-buffered saline for capture across goat anti-mouse IgG specific reaction surfaces. Antibodies or DVD-Ig to be captured as a ligand (25 μg/ml) are injected over reaction matrices at a flow rate of 5 μl/min. The association and dissociation rate constants, kₒₙ (M⁻¹ s⁻¹) and koff (s⁻¹) are determined under a continuous flow rate of 25 μl/min. Rate constants are derived by making kinetic binding measurements at different antigen concentrations ranging from 10-200 nM. The equilibrium dissociation constant (M) of the reaction between antibodies or DVD-Igs and the target antigen is then calculated from the kinetic rate constants by the following formula: KD=koff/kₒₙ. Binding is recorded as a function of time and kinetic rate constants are calculated.

[2] = target: T1, Recombinant Human TNFα/TNFSF1A; assay: cell-based or functional assay

T1 sequence (P01375 77-233 limits assumed): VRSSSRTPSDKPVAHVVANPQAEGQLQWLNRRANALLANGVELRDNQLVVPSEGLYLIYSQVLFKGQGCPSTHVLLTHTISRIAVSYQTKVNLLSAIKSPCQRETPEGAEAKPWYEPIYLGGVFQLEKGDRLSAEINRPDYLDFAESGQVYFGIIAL

| Binder | Kd [1] | koff [1] | kon [1] | TNFα Neutralization Assay EC50 nM (L929 cells) [2] | C-terminal VD TNFα Neutralization Assay EC50 nM (L929 cells) [2] |
| --- | --- | --- | --- | --- | --- |
| AB314 (antibody, human IgG1, kappa, V domains shown, CDR-grafted parent antibody; also called TNF (AB023)) VH: EVQLVESGGGLVQPANSLKLSCAASGFTFDDYAMHWVRQSPKKGLEWVSAITWNSGHIDYADSVEGRFTISRDNAKNTLYLQMDSLRSEDTATYYCAKVSYLSTASSLDYWGQGVLVTVSS VL: DIRMTQSPASLSASLGETVNIECRASQGIRNYLAWYQQKPGKAPQLLIYAASTLQSGVPSRFSGSGSGTQFSLKINSLQSEDVATYYCQRYNRAPYTFGGGTKLELKR | 64 pM | 7.9e-05 s⁻¹ | 1.2e+06 M⁻¹ s⁻¹ | 0.053 nM |  |
| AB284 (antibody, human IgG1, kappa, V domains shown, CDR-grafted parent antibody; also called TNF (AB058)) VH: EVQLVQSGTEVKKPGESLKISCKASGFTFDDYAMHWVRQMPGKGLEWVSAITWNSGHIDYADSVEGQFTISRDNSFNTLFLQWSSLKASDTAMYYCAKVSYLSTASSLDYWGQGTMVTVSS VL: EIVMTQSPATLSVSPGERATLSCRASQGIRNYLAWYQQKPGQAPRLLIYAASTLQSDVPARFSGSGSGTEFTLTISSLQSEDFAVYYCQRYNRAPYTFGQGTRLEIKR | 130 pM | 0.00015 s⁻¹ | 1.2e+06 M⁻¹ s⁻¹ | 0.228 nM |  |
| DVD1727 (bispecific antibody, human IgG1, kappa, DVD-Ig; also called PGE2 (AB017) / TNF (AB023) DVD-Ig) heavy: not shown light: DVQMTQSPSSLSASVGDRVTITCTSSQNIVHSNGNTYLEWYQQKPGKSPKLLIYKVSNRFSGVPSRFSGSGSGTDFTLTISSLQPEDVATYYCFQVSHVPYTFGQGTKVEIKRTVAAPDIRMTQSPASLSASLGETVNIECRASQGIRNYLAWYQQKPGKAPQLLIYAASTLQSGVPSRFSGSGSGTQFSLKINSLQSEDVATYYCQRYNRAPYTFGGGTKLELKRTVAAPSVFIFPPSDEQLKSGTASVVCLLNNFYPREAKVQWKVDNALQSGNSQESVTEQDSKDSTYSLSSTLTLSKADYEKHKVYACEVTHQGLSSPVTKSFNRGEC | 5400 pM | 0.00012 s⁻¹ | 22000 M⁻¹ s⁻¹ |  | 1.17 nM |
